The record followed here is patent publication US20240002500A1 (GUANGDONG FAPON BIOPHARMA, published 2024).

To fix the notation:
B1: 3Tigit-12 mouse monoclonal antibody (antibody, V domains shown)
VH: QVQLQQSGAELVRPGTSVKMSCKAAGYTFTNYWIGWVKQRPGHGLEWIGDIYPGGGYTNYDEKFKGKATLTADTSSRTAYMQLSSLTSEDSAIYHCVNGGYGSTYGYFDVWGAGTTVTVSS
VL: DIVMSQSPSSLPVSVGEKVTMSCKSSQSLLFSSDQKNYLAWYQQKPGQSPKLLIYWASTRESGVPDRLTGSGSGTDFTLTISSVKAEDLAVYYCQQYHKYPFTFGGGTKLEIKR
notes: Mouse monoclonal antibody from hybridoma
B2: 3Tigit-16 mouse monoclonal antibody (antibody, V domains shown)
VH: EVQLQQSGPELVKPGASVKMSCKASGFTFTDYFMDWVKQSRGASFEWIGRLNPNNGRTSYNQKFKGKATLTVDKSSSTAYMELNSLTSEDSAVYYCARGDLGRWYFDVWGAGTTVTVSS
VL: QIVLTQSPAIMSASPGEKVTMTCSASSSVSYMHWYQQKSGTSPKRWIYDTSKLASGVPTRFSGSGSGTSYSLTISSMEAEDAASYFCQQWSSNSLTFGAGTKLELKR
notes: as for B1
B3: 3Tigit-29 mouse monoclonal antibody (antibody, V domains shown)
VH: EVQLQQSGPELVKPGASVKISCKASGYTFTDYNMHWVKQSLGKSLEWIGYVNSFNGNTGYSQKFKSKVTLTVDRSSRTAYMDLRSLTSEDSAVFYCARSSRGGFAYWGQGTLVTVSA
VL: B2 VL with T59A, G65V, S84T, F86Y
notes: as for B1
B4: Tigit-5 mouse monoclonal antibody (antibody, V domains shown)
VH: QVQLQQPGAELVRPGASVKLSCKASGYSFTSYWMNWVKQRPGQGLEWIGMIRPSDSETRLNQMFKDKATLTVDKSSSTAYMQLSSPTSDDSAVYYCAGIHDYGHGAYWGQGTLVTVSA
VL: DIQMIQSPASLSVSVGETVTITCRASENIYSNLAWYQQKQGKSPQLLVYAASHLPDGVPSRFSGSGSGTQYSLKINSLQSEDFGSYYCQHFWGTPRTFGGGTKLEIKR
notes: as for B1

Where a chain is given by its changes, count along the chain named.

T2 sequence (A0A7N9I9V4 entry or part of it): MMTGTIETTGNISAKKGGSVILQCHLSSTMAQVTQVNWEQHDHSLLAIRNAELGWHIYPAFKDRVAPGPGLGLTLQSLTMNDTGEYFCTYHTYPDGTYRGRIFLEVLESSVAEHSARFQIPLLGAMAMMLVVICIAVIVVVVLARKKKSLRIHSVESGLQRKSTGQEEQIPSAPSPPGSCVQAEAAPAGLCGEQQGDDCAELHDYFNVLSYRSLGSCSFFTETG

For the first assay, the target named is T1, hTIGIT-hFc (human, UniProt Q495A1 22-141).
T1 construct: also called antigen protein hTIGIT-hFc; human TIGIT recombinant protein carrying a human Fc tag; not shown: human Fc tag
T1 sequence (looked up): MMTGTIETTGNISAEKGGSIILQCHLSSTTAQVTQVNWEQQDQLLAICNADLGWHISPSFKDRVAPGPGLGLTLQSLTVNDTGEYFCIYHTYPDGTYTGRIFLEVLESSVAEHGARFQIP
Put plainly: FACS blocking: hTIGIT-hFc bound on U2-OS cells (PVR and CD112), then antibody, APC anti-human IgG Fc; first row of the table, row head not given; unit from the x axis Log[µg/mL]. How it is done: U2-OS cells to be detected (human osteosarcoma cells, naturally and highly expressing PVR and CD112 by means of detection) were counted; centrifugated at 300 g for 5 min; resuspended with an FCM buffer; and cell density was adjusted to 4E+06 cell/mL for later use. […] According to an experimental design, in each well, 50 μL of the antigen protein and 50 μL of the cell (the volume of each cell added into a 96-well V-shaped plate being 2E+05 cell/well) were respectively added in the 96-well V-shaped plate; and incubation was performed in dark on ice for 30 min. Centrifugation (300 g/5 min) was performed; supernatant was discarded; 200 μL of the FCM buffer was added for washing once; centrifugation (300 g/5 min) was performed; and the supernatant was discarded. The antibody was added to the 96-well V-shaped plate (in 100 μL/well); and incubation was performed in dark on ice for 30 min. Centrifugation (300 g/5 min) was performed; supernatant was discarded; 200 μL of the FCM buffer was added for washing once; centrifugation (300 g/5 min) was performed; and the supernatant was discarded. Secondary antibodies (APC anti-human IgG Fc, 1:500 dilution) were added to the 96-well V-shaped plate (in 100 μL/well); and incubation was performed in dark on ice for 30 min. Centrifugation (300 g/5 min) was performed; supernatant was discarded; 200 μL of the FCM buffer was added for washing once; centrifugation (300 g/5 min) was performed; and the supernatant was discarded. 100 μL of the 1×PBS was added for resuspending, and on-machine detection was performed.
Turning to B1, the IC50 (as a rule, the concentration that inhibits the measured activity by half) was found to be 0.543 µg/mL.

Consider B2, for which the midpoint of inhibition, the IC50, lay at 0.636 µg/mL.

Turning to B3, inhibition was half-maximal at 0.628 µg/mL (IC50).

Another assay concerns the target T2, full-length cynoTIGIT on CHO cells (monkey (cyno), UniProt A0A7N9I9V4 89-312).
T2 construct: whole, on cells; also called CHO-cynoTIGIT; monkey TIGIT
As to the kind of experiment: FACS titration on CHO-cynoTIGIT cells, PE goat anti-mouse IgG. As for the experimental part:
In order to verify that the anti-human TIGIT antibody binds to a monkey TIGIT, the following experiments were specifically performed. The CHO-engineered cell CHO-cynoTIGIT cells recombinantly expressing full-length […] cynoTIGIT were counted; centrifugated at 300 g for 5 min; resuspended with an FCM buffer; and cell density was adjusted to 4E+06 cell/mL for later use.
Samples to be detected (including a positive control antibody and a mouse monoclonal antibody) were diluted with the FCM buffer to 20 μg/mL, and then the FCM buffer was used to perform 3× serial dilutions of 12 concentration points; and an isotype control antibody was diluted with the FCM buffer to 20 μg/mL. According to an experimental design, in each well, 50 μL of the antibody and 50 μL of the cell (the volume of each cell added into a 96-well V-shaped plate being 2E+05 cell/well) were respectively added in the 96-well V-shaped plate; and incubation was performed in dark on ice for 30 min. Centrifugation (300 g/5 min) was performed; supernatant was discarded; 200 μL of the FCM buffer was added for washing once; centrifugation (300 g/5 min) was performed; and the supernatant was discarded. […] Centrifugation (300 g/5 min) was performed; supernatant was discarded; 200 μL of the FCM buffer was added for washing once; centrifugation (300 g/5 min) was performed; and the supernatant was discarded. 100 μL of the 1×PBS was added for resuspending, and on-machine detection was performed.
With B1, a half-maximal response (EC50) required 0.354 nM.

With B4, it took 0.426 nM to reach a half-maximal effect (EC50).

On to B2, for which the EC50 (in general, the concentration at which the effect is half-maximal) was 0.758 nM.

B3 registered an EC50 of 0.506 nM.

The next assay addresses T3, full-length human TIGIT on cells (human, UniProt Q495A1 22-244).
T3 construct: whole, on cells; The same protein is used for CHO-hTIGIT, PBMC and NK92-hTIGIT; the cells are named under assay; also called CHO-hTIGIT; hTIGIT
T3 sequence (looked up): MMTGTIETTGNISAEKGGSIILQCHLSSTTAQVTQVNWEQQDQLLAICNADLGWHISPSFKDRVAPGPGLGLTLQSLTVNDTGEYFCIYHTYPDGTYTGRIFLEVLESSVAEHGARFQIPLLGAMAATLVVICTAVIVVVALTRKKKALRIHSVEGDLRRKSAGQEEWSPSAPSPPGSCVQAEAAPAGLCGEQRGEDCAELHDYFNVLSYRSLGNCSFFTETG
As to the kind of experiment: FACS titration on CHO-hTIGIT cells; span of the fitted curve, unit from the y axis. How it is done:
The CHO-engineered cells CHO-hTIGIT cells recombinantly expressing full-length human TIGIT to be detected were counted, centrifuged at 300 g for 5 min, resuspended in an FCM buffer and cell density was adjusted to 4E+06 cell/mL for later use. A sample to be detected (including a positive control antibody and a mouse monoclonal antibody) was diluted with the FCM buffer to 20 μg/mL, and then the FCM buffer was used to perform 3× serial dilutions of 12 concentration points; and the isotype control antibody was diluted with the FCM buffer to 20 μg/mL. According to an experimental design, in each well, 50 μL of the antibody and 50 μL of the cell (the amount of each cell added into a 96-well V-shaped plate being 2E+05 cells/well) were respectively added in the 96-well V-shaped plate; and incubation in dark was performed on ice for 30 min. Centrifugation (300 g/5 min) was performed; supernatant was discarded; 200 μL of the FCM buffer was added for washing once; centrifugation (300 g/5 min) was performed; and the supernatant was discarded. […] Centrifugation (300 g/5 min) was performed; supernatant was discarded; 200 μL of the FCM buffer was added once for washing once; centrifugation (300 g/5 min) was performed; and the supernatant was discarded. 100 μL of the 1×PBS was added for resuspending, and on-machine detection was performed.
In turn, B4 gave a Span of 21000 MFI-PE.

Consider B2, for which the Span came to 34600 MFI-PE.

B3 returned a Span of 30600 MFI-PE.
